Source: US20200392227A1 (LYVGEN BIOPHARMA, published 2020)

B1: anti-CD137 IgG1 with Fc variant G1m5 (antibody)
heavy: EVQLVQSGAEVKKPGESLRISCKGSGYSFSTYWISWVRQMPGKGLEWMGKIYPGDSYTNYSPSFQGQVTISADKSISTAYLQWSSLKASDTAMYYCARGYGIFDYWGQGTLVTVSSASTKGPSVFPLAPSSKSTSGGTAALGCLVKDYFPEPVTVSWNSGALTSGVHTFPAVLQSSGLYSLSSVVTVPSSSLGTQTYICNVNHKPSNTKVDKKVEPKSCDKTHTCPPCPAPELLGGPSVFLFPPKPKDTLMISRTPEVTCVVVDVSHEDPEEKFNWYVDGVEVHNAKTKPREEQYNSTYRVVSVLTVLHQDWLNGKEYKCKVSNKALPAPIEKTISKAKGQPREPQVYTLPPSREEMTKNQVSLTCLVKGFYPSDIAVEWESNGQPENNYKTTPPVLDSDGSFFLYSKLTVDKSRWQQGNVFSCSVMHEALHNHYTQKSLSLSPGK
light: SYELTQPPSVSVSPGQTASITCSGDNIGDQYAHWYQQKPGQSPVLVIYQDKNRPSGIPERFSGSNSGNTATLTISGTQAMDEADYYCATYTGFGSLAVFGGGTKLTVLGQPKAAPSVTLFPPSSEELQANKATLVCLISDFYPGAVTVAWKADSSPVKAGVETTTPSKQSNNKYAASSYLSLTPEQWKSHRSYSCQVTHEGSTVEKTVAPTECS
notes: copies: 2 + 2
B2: anti-CD137 IgG1 with Fc variant G1m7 (antibody)
heavy: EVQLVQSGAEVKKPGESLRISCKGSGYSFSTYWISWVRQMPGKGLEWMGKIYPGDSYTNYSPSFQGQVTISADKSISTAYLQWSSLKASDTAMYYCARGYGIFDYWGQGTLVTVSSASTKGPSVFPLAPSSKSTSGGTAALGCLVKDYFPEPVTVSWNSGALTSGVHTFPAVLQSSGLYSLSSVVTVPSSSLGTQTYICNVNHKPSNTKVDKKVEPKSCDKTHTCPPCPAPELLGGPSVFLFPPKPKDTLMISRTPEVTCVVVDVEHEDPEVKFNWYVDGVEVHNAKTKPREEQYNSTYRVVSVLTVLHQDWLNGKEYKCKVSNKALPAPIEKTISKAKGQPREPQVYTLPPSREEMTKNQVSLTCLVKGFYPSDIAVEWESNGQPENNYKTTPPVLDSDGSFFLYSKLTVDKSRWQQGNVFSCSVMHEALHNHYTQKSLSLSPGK
light: B1 light
notes: copies: 2 + 2
B3: anti-CD137 IgG1 with Fc variant G1m9 (antibody)
heavy: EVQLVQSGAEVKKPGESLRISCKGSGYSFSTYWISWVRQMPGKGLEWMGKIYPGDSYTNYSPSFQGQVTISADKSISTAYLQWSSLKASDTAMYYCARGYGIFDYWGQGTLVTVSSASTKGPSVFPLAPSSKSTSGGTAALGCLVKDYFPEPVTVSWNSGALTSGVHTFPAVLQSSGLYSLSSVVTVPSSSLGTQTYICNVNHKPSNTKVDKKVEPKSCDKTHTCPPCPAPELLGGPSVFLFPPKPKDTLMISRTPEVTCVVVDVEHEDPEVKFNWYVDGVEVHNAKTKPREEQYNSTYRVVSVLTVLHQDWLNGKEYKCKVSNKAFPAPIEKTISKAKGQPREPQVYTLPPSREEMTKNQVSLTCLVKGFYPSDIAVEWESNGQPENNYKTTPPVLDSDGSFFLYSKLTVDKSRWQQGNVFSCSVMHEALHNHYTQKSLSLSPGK
light: B1 light
notes: copies: 2 + 2
B4: anti-CD137 IgG1 with Fc variant G1m8 (antibody)
heavy: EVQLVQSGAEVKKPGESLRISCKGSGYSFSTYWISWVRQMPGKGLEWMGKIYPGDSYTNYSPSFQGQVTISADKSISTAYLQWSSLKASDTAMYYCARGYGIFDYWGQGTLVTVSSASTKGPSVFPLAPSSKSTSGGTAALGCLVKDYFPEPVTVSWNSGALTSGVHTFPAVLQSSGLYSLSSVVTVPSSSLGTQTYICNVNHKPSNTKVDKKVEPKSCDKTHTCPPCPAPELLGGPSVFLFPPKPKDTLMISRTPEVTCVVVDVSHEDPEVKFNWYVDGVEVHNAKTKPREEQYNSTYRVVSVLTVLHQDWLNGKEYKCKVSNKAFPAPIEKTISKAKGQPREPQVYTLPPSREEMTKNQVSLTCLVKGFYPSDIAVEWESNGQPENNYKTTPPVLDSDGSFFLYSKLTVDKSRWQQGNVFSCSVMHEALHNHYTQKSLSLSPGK
light: B1 light
notes: copies: 2 + 2
B5: anti-CD137 IgG1 with Fc variant G1m29 (antibody)
heavy: EVQLVQSGAEVKKPGESLRISCKGSGYSFSTYWISWVRQMPGKGLEWMGKIYPGDSYTNYSPSFQGQVTISADKSISTAYLQWSSLKASDTAMYYCARGYGIFDYWGQGTLVTVSSASTKGPSVFPLAPSSKSTSGGTAALGCLVKDYFPEPVTVSWNSGALTSGVHTFPAVLQSSGLYSLSSVVTVPSSSLGTQTYICNVNHKPSNTKVDKKVEPKSCDKTHTCPPCPAPELLGPSVFLFPPKPKDTLMISRTPEVTCVVVDVEHEDPEVKFNWYVDGVEVHNAKTKPREEQYNSTYRVVSVLTVLHQDWLNGKEYKCKVSNKAFPAPIEKTISKAKGQPREPQVYTLPPSREEMTKNQVSLTCLVKGFYPSDIAVEWESNGQPENNYKTTPPVLDSDGSFFLYSKLTVDKSRWQQGNVFSCSVMHEALHNHYTQKSLSLSPGK
light: B1 light
notes: copies: 2 + 2
B6: anti-CD137 IgG1 with Fc variant G1m18 (antibody)
heavy: EVQLVQSGAEVKKPGESLRISCKGSGYSFSTYWISWVRQMPGKGLEWMGKIYPGDSYTNYSPSFQGQVTISADKSISTAYLQWSSLKASDTAMYYCARGYGIFDYWGQGTLVTVSSASTKGPSVFPLAPSSKSTSGGTAALGCLVKDYFPEPVTVSWNSGALTSGVHTFPAVLQSSGLYSLSSVVTVPSSSLGTQTYICNVNHKPSNTKVDKKVEPKSCDKTHTCPPCPAPELLSVFLFPPKPKDTLMISRTPEVTCVVVDVSHEDPEVKFNWYVDGVEVHNAKTKPREEQYNSTYRVVSVLTVLHQDWLNGKEYKCKVSNKAFPAPIEKTISKAKGQPREPQVYTLPPSREEMTKNQVSLTCLVKGFYPSDIAVEWESNGQPENNYKTTPPVLDSDGSFFLYSKLTVDKSRWQQGNVFSCSVMHEALHNHYTQKSLSLSPGK
light: B1 light
notes: copies: 2 + 2

Molecular target: T1, human FcRIIIA-V158 protein (MednaBio, E1035) (human, UniProt P08637 17-208)
T1 construct: Bought; also called FcγRIIIA(V); FcgRIIIA(V)
T1 sequence (P08637 17-208 F176V): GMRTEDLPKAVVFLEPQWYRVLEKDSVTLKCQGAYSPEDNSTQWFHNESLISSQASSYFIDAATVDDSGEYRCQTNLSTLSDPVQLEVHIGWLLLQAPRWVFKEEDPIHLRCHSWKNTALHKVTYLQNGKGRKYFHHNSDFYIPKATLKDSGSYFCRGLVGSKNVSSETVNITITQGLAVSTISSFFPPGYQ
Assay: BLI
Procedure, shortened: (§1)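 Binding was measured by biolayer interferometry on an Octet Red96 System. Commercial human Fc receptor proteins were loaded at 20 μg/mL onto anti-penta-HIS biosensors, which were then dipped into an 8-point 1:3 dilution series of test IgG starting at 300 nM in PBS with 0.1% BSA and 0.02% Tween-20, at pH 7.2 for Fcγ receptors and pH 6 for FcRn. Kd, kon and koff were obtained by global fitting, with data fitted to a 1:1 binding model.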

Binder	Kd	koff	kon
B1	290 nM	0.073 s⁻¹	250000 M⁻¹ s⁻¹
B2	87 nM	0.039 s⁻¹	440000 M⁻¹ s⁻¹
B3	86 nM	0.1 s⁻¹	1.2e+06 M⁻¹ s⁻¹
B4	230 nM	0.074 s⁻¹	320000 M⁻¹ s⁻¹

Molecular target: T2, human FcRIIB/C protein (MednaBio, E1034) (human, UniProt P31994 43-217, limits assumed)
T2 construct: Bought as FcRIIB/C; also called FcγRIIB; CD32B
T2 sequence (looked up): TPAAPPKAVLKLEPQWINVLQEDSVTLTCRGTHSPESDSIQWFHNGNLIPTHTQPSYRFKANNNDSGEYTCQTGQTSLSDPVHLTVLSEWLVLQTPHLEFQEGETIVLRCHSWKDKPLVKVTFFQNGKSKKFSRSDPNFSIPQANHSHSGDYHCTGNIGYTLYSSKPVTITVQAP
Assay: BLI
Procedure, shortened: as §1

Binder	Kd	koff	kon
B1	640 nM	0.18 s⁻¹	280000 M⁻¹ s⁻¹
B2	110 nM	0.032 s⁻¹	280000 M⁻¹ s⁻¹
B3	25 nM	0.0051 s⁻¹	200000 M⁻¹ s⁻¹
B4	420 nM	0.11 s⁻¹	270000 M⁻¹ s⁻¹

Molecular target: T3, human FcRIIA protein (MednaBio, E1033) (human, UniProt P12318 34-218, limits assumed)
T3 construct: Bought; also called FcγRIIA
T3 sequence (looked up): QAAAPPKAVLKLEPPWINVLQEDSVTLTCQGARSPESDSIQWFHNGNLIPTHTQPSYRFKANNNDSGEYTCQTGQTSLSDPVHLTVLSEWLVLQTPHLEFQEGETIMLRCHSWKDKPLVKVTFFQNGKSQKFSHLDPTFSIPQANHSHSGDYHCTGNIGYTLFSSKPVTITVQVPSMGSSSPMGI
Assay: BLI
Procedure, shortened: as §1

Binder	Kd	koff	kon
B1	670 nM	0.23 s⁻¹	340000 M⁻¹ s⁻¹
B2	290 nM	0.11 s⁻¹	380000 M⁻¹ s⁻¹
B3	680 nM	0.13 s⁻¹	180000 M⁻¹ s⁻¹
B4	270 nM	0.17 s⁻¹	610000 M⁻¹ s⁻¹

Molecular target: T4, human FcRIIIB protein (MednaBio, E1037) (human, UniProt O75015 17-200)
T4 construct: Bought; also called FcγRIIIB; FcgRIIIB
T4 sequence (O75015 17-200 limits assumed): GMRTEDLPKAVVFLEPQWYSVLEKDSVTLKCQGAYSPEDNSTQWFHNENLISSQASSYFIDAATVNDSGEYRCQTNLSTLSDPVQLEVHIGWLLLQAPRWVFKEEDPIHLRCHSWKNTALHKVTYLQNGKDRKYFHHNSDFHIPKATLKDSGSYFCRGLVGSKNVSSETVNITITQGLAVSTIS
Assay: BLI
Procedure, shortened: as §1

Binder	binding result
B1	no binding (tested: 300 nM)
B2	no binding (tested: 300 nM)
B3	no binding (tested: 300 nM)
B4	no binding (tested: 300 nM)

Molecular target: T5, human FcRI protein (MednaBio, E1031) (human, UniProt P12314 16-288, limits assumed)
T5 construct: Bought; loaded on anti-penta-HIS biosensors; also called FcγRI
T5 sequence (P12314 16-288 limits assumed): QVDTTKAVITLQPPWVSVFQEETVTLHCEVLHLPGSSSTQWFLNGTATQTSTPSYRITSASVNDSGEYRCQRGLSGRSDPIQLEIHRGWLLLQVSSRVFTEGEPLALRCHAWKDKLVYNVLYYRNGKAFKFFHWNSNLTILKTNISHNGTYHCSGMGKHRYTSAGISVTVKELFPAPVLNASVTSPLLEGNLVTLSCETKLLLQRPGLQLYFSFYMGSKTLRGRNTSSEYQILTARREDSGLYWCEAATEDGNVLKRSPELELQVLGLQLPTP
Assay: BLI
Procedure, shortened: as §1

Binder	Kd	koff	kon
B1	1.6 nM	0.00047 s⁻¹	300000 M⁻¹ s⁻¹
B2	2.5 nM	0.0016 s⁻¹	630000 M⁻¹ s⁻¹
B3	3.1 nM	0.0016 s⁻¹	510000 M⁻¹ s⁻¹
B4	2.5 nM	0.0016 s⁻¹	630000 M⁻¹ s⁻¹

Molecular target: T6, human FcRIIIA-F158 protein (MednaBio, E1036) (human, UniProt P08637 17-208)
T6 construct: Bought; also called FcγRIIIA(F)
T6 sequence (P08637 17-208 limits assumed): as the sequence (P08637 17-208 F176V) above, with V160F counted along it
Assay: BLI
Procedure, shortened: as §1

Binder	binding result	Kd	koff	kon
B1	no binding (tested: 300 nM)			
B2		140 nM	0.05 s⁻¹	350000 M⁻¹ s⁻¹
B3		180 nM	0.091 s⁻¹	520000 M⁻¹ s⁻¹
B4		260 nM	0.057 s⁻¹	220000 M⁻¹ s⁻¹

Molecular target: T7, human FcRn protein (MednaBio, E1032) (human, UniProt P55899 24-297; P61769 21-119)
T7 construct: Bought; assays at pH 6
T7 sequence (P55899 24-297 limits assumed, form in doubt, chain 1 of 2): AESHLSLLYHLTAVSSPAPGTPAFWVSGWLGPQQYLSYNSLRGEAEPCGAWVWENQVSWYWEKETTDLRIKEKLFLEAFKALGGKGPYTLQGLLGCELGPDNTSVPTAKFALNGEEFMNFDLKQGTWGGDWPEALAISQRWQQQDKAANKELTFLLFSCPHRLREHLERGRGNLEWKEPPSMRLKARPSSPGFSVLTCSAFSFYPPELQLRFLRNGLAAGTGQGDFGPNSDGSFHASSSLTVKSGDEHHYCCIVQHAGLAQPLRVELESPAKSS
T7 sequence (P61769 21-119 limits assumed, form in doubt, chain 2 of 2): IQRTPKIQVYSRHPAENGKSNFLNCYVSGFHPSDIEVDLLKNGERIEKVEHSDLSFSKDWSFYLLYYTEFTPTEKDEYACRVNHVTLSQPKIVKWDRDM
Assay: BLI
Procedure, shortened: as §1

Binder	Kd	koff	kon
B1	22 nM	0.0077 s⁻¹	350000 M⁻¹ s⁻¹
B2	15 nM	0.01 s⁻¹	670000 M⁻¹ s⁻¹
B3	19.1 nM	0.0116 s⁻¹	607000 M⁻¹ s⁻¹
B4	16.5 nM	0.0111 s⁻¹	673000 M⁻¹ s⁻¹

Molecular target: T1, human FcRIIIA-V158 protein (MednaBio, …)
Assay: BLI
Remark: another data set of the same source
Procedure, shortened: as §1

Binder	binding result
B5	no binding (tested: 300 nM)
B6	no binding (tested: 300 nM)

Molecular target: T2, human FcRIIB/C protein (MednaBio, E1034)
Assay: BLI
Remark: another data set of the same source
Procedure, shortened: as §1

Binder	Kd	koff	kon
B5	46 nM	0.011 s⁻¹	250000 M⁻¹ s⁻¹
B6	670 nM	0.39 s⁻¹	580000 M⁻¹ s⁻¹

Molecular target: T3, human FcRIIA protein (MednaBio, E1033)
Assay: BLI
Remark: another data set of the same source
Procedure, shortened: as §1

Binder	Kd	koff	kon
B5	530 nM	0.14 s⁻¹	260000 M⁻¹ s⁻¹
B6	140 nM	0.029 s⁻¹	200000 M⁻¹ s⁻¹

Molecular target: T4, human FcRIIIB protein (MednaBio, E1037)
Assay: BLI
Remark: another data set of the same source
Procedure, shortened: as §1

Binder	binding result
B5	no binding (tested: 300 nM)
B6	no binding (tested: 300 nM)

Molecular target: T5, human FcRI protein (MednaBio, E1031)
Assay: BLI
Remark: another data set of the same source
Procedure, shortened: as §1

Binder	Kd	koff	kon
B5	37 nM	0.0098 s⁻¹	260000 M⁻¹ s⁻¹
B6	260 nM	0.21 s⁻¹	830000 M⁻¹ s⁻¹

Molecular target: T6, human FcRIIIA-F158 protein (MednaBio, …)
Assay: BLI
Remark: another data set of the same source
Procedure, shortened: as §1

Binder	binding result
B5	no binding (tested: 300 nM)
B6	no binding (tested: 300 nM)

Molecular target: T7, human FcRn protein (MednaBio, E1032)
Assay: BLI
Remark: another data set of the same source
Procedure, shortened: as §1

Binder	Kd	koff	kon
B5	17 nM	0.013 s⁻¹	760000 M⁻¹ s⁻¹
B6	12.8 nM	0.00803 s⁻¹	630000 M⁻¹ s⁻¹

Molecular target: T8, human FcγRIIC expressed on CHO cells (human, UniProt P31995 43-323)
T8 construct: whole, on cells
T8 sequence (looked up): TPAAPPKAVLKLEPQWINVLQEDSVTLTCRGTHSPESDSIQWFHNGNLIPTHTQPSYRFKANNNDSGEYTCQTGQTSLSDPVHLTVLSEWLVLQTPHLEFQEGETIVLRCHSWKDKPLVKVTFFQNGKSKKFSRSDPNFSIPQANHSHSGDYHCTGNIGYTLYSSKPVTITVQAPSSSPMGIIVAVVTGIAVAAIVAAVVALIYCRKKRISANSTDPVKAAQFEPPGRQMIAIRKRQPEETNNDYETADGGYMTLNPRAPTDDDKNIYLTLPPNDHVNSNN
Assay: FACS, CHO cells expressing FcγRIIC
Procedure: FIGS. 1A-1W are charts showing binding activity of various IgG variants as indicated to different types of Fcγ receptors expressed on CHO-K1 cells at the various concentrations as indicated. The concentrations of each IgG variant, from left to right, are 0 μg/ml, 0.3 μg/ml, 1 μg/ml, 3 μg/ml, and 10 μg/ml in FIGS. 1A-1C, 1E-J, 1L-1M, 1P-1R, and 1T-1V. For FIGS. 1D, 1K, 10, 1S, and 1w the bars, from left to right, correspond to the following concentrations of IgG variant: 0.3 μg/ml, 1 μg/ml, 3 μg/ml, and 10 μg/ml.
For FACS analysis of the IgG mutants' binding to different FcγRs, FcγR overexpressing CHO cells were harvested using trypsin-EDTA and were suspended in cold staining buffer (3% BSA in PBS). Test IgG mutants, which were diluted in staining buffer, were added into the cells. The mixture was incubated 4° C. for 2 hours, and then washed twice with cold staining buffer and re-suspended in PE-labeled anti-human IgG followed by incubation at 4° C. for 2 hours. The mixture was washed twice with staining buffer and re-suspended in 2% PFA in PBS for FACS.

Binder	binding result
B1	binds
B2	binds
B3	binds
B4	binds
